According to PMC9536601:

Columns and labels:
[1] = target: hexon of the Ad5 vector Ad5.6 (on virions) (human adenovirus 5) (UniProt P04133); assay: SPR; Biacore T200; about 300 to 5,000 RU of Ad virions immobilised on a CM5 chip, coagulation factors flowed over at four concentrations, 50 uL/min; running buffer 10 mM HEPES, 150 mM NaCl, 1 mM CaCl2, 0.5 mM MgCl2, 0.1% BSA, 0.05% polysorbate 20, pH 7.4; regeneration with 3 mM EDTA; global fit to a 1:1 kinetic interaction model, double referencing
[2] = target: hexon of the Ad5 vector Ad5.4 (HVR7 mutant, on virions) (human adenovirus 5) (UniProt P04133); assay: as above
[3] = target: hexon of wild-type human adenovirus type 1 (on virions) (human adenovirus 1); assay: as above
[4] = target: chimeric hexon of the Ad5 vector Ad5:H6.1 (Ad5 hexon with residues 112-593 from Ad6 hexon, on virions) (human adenovirus 5 | human adenovirus 6) (UniProt P04133); assay: as above
[5] = target: hexon of the Ad5 vector Ad5.10 (Ad5 hexon with HVR1 of Ad6 hexon, on virions) (human adenovirus 5) (UniProt P04133); assay: as above
[6] = target: chimeric hexon of the Ad5 vector Ad5:H57.1 (Ad5 hexon with residues 112-593 from Ad57 hexon, on virions) (human adenovirus 5 | human adenovirus 57) (UniProt P04133); assay: as above
[7] = target: chimeric hexon of the Ad5 vector Ad5:H1.2 (Ad1 hexon section with HVR7 mutations, on virions) (human adenovirus 5 | human adenovirus 1) (UniProt P04133); assay: as above
[8] = target: hexon of the Ad5 vector Ad5.5 (on virions) (human adenovirus 5) (UniProt P04133); assay: as above
[9] = target: chimeric hexon of the Ad5 vector Ad5:H1.1 (Ad5 hexon with residues 112-593 from Ad1 hexon, on virions) (human adenovirus 5 | human adenovirus 1) (UniProt P04133); assay: as above
[10] = target: chimeric hexon of Ad5:H57.1 (Ad5 vector, hexon residues 112-593 from Ad57 hexon), on the virion (human adenovirus type 5 | human adenovirus type 57) (UniProt P04133); assay: SPR; Biacore T200; about 300 to 5,000 RU of Ad virions immobilised on a CM5 chip, coagulation factors flowed over at four concentrations, 50 uL/min; 10 mM HEPES, 150 mM NaCl, 1 mM CaCl2, 0.5 mM MgCl2, 0.1% BSA, 0.05% polysorbate 20, pH 7.4; global fit to a 1:1 kinetic interaction model, double referencing

Substance: bovine coagulation factor X (from UniProt P00743 41-492) (natural protein)
- Kd [1]: 1620 nM
- koff [1]: 0.167 s⁻¹
- kon [1]: 104000 M⁻¹ s⁻¹
- Kd [2]: 540 nM
- koff [2]: 0.147 s⁻¹
- kon [2]: 274000 M⁻¹ s⁻¹
- Kd [3]: 160 nM
- koff [3]: 0.0381 s⁻¹
- kon [3]: 232000 M⁻¹ s⁻¹
- Kd [4]: 97 nM
- koff [4]: 0.0132 s⁻¹
- kon [4]: 135000 M⁻¹ s⁻¹
- Kd [5]: 276 nM
- koff [5]: 0.151 s⁻¹
- kon [5]: 549000 M⁻¹ s⁻¹
- Kd [6]: 28 nM
- koff [6]: 0.00342 s⁻¹
- kon [6]: 121000 M⁻¹ s⁻¹
- Kd [7]: 1100 nM
- koff [7]: 0.085 s⁻¹
- kon [7]: 77400 M⁻¹ s⁻¹
- Kd [8]: 438 nM
- koff [8]: 0.169 s⁻¹
- kon [8]: 387000 M⁻¹ s⁻¹
- Kd [9]: 220 nM
- koff [9]: 0.0512 s⁻¹
- kon [9]: 236000 M⁻¹ s⁻¹
- Kd [10]: 28 nM

Substance: human coagulation factor X (from UniProt P00742 41-488) (natural protein)
- Kd [1]: 0.94 nM
- koff [1]: 0.000127 s⁻¹
- kon [1]: 135000 M⁻¹ s⁻¹
- Kd [2]: 10 nM
- koff [2]: 0.000338 s⁻¹
- kon [2]: 33900 M⁻¹ s⁻¹
- Kd [3]: 220 nM
- koff [3]: 0.0501 s⁻¹
- kon [3]: 232000 M⁻¹ s⁻¹
- Kd [4]: 43 nM
- koff [4]: 0.00914 s⁻¹
- kon [4]: 214000 M⁻¹ s⁻¹
- Kd [5]: 1.1 nM
- koff [5]: 0.000122 s⁻¹
- kon [5]: 112000 M⁻¹ s⁻¹
- Kd [6]: 58 nM
- koff [6]: 0.00316 s⁻¹
- kon [6]: 54300 M⁻¹ s⁻¹
- Kd [7]: 650 nM
- koff [7]: 0.0631 s⁻¹
- kon [7]: 97200 M⁻¹ s⁻¹
- Kd [8]: 5.2 nM
- koff [8]: 0.000661 s⁻¹
- kon [8]: 126000 M⁻¹ s⁻¹
- Kd [9]: 300 nM
- koff [9]: 0.077 s⁻¹
- kon [9]: 253000 M⁻¹ s⁻¹
- Kd [10]: 58 nM

Substance: mouse coagulation factor X (from UniProt O88947 41-481) (natural protein)
- Kd [1]: 0.37 nM
- koff [1]: 0.000115 s⁻¹
- kon [1]: 310000 M⁻¹ s⁻¹
- Kd [2]: 1.9 nM
- koff [2]: 0.000479 s⁻¹
- kon [2]: 248000 M⁻¹ s⁻¹
- Kd [3]: 0.31 nM
- koff [3]: 7.73e-05 s⁻¹
- kon [3]: 253000 M⁻¹ s⁻¹
- Kd [4]: 0.31 nM
- koff [4]: 3.78e-05 s⁻¹
- kon [4]: 122000 M⁻¹ s⁻¹
- Kd [5]: 0.58 nM
- koff [5]: 0.00014 s⁻¹
- kon [5]: 240000 M⁻¹ s⁻¹
- Kd [6]: 0.65 nM
- koff [6]: 9.23e-05 s⁻¹
- kon [6]: 143000 M⁻¹ s⁻¹
- Kd [7]: 5 nM
- koff [7]: 0.00084 s⁻¹
- kon [7]: 169000 M⁻¹ s⁻¹
- Kd [8]: 2.5 nM
- koff [8]: 0.00104 s⁻¹
- kon [8]: 416000 M⁻¹ s⁻¹
- Kd [9]: 0.82 nM
- koff [9]: 0.000372 s⁻¹
- kon [9]: 454000 M⁻¹ s⁻¹
- Kd [10]: 0.65 nM

Substance: mouse prothrombin (coagulation factor II) (from UniProt P19221 44-618) (natural protein)
- Kd [1]: 420 nM
- koff [1]: 0.026 s⁻¹
- kon [1]: 62400 M⁻¹ s⁻¹
- Kd [2]: 36000 nM
- koff [2]: 0.281 s⁻¹
- kon [2]: 7770 M⁻¹ s⁻¹
- Kd [3]: 14 nM
- koff [3]: 0.000687 s⁻¹
- kon [3]: 49800 M⁻¹ s⁻¹
- Kd [4]: 8.6 nM
- koff [4]: 0.000535 s⁻¹
- kon [4]: 62200 M⁻¹ s⁻¹
- Kd [5]: 356 nM
- koff [5]: 0.06 s⁻¹
- kon [5]: 168000 M⁻¹ s⁻¹
- Kd [6]: 10 nM
- koff [6]: 0.00031 s⁻¹
- kon [6]: 29800 M⁻¹ s⁻¹
- Kd [7]: 1300 nM
- koff [7]: 0.0483 s⁻¹
- kon [7]: 36800 M⁻¹ s⁻¹
- Kd [8]: 216 nM
- koff [8]: 0.0676 s⁻¹
- kon [8]: 314000 M⁻¹ s⁻¹
- Kd [9]: 16 nM
- koff [9]: 0.00118 s⁻¹
- kon [9]: 71600 M⁻¹ s⁻¹
- Kd [10]: 10 nM
